What was measured:
[1] = molecular target: T1, tau aggregates in sarkosyl-insoluble brain homogenate preps of 4.5 to 5 month old P301S mice; assay: cell-based or functional assay
[2] = molecular target: T1, tau aggregates in sarkosyl-insoluble …; assay: cell-based or functional assay; remark: listed apart in the source
[3] = molecular target: T2, purified tau fibrils from AD brain homogenates (human, UniProt P10636-8 2-441, limits assumed); assay: direct ELISA on coated purified AD tau fibrils
T2 construct: Native brain-derived aggregated tau, coated at 0.7 ug/ml total tau; also called Purified AD Tau Fibrils; aggregate tau fibrils from AD brain homogenates
T2 sequence (P10636 other isoform, or with tags, fused parts or gaps limits assumed): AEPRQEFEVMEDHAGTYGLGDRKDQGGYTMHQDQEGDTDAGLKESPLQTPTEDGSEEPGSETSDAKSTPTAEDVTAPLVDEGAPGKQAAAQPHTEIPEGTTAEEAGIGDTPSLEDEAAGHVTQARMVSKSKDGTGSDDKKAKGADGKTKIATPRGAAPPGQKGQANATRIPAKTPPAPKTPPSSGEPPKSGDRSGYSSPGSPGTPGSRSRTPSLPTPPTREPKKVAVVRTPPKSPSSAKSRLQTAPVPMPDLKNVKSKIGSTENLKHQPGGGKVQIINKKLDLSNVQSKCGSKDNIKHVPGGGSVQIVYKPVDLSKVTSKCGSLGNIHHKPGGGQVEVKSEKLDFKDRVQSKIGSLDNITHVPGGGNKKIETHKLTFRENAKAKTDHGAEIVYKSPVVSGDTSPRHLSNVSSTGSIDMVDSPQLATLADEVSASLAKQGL
Method: (§1) Purified tau fibrils (50 μl) in PBS are coated on wells of 96-well plates (Coastar, p/n. 3690) at a concentration corresponding to 0.7 μg/ml of total tau. Plates are incubated overnight at 4° C., then washed three times with 150 μl of PBST (PBS containing 0.05% Tween-20), blocked in 100 μl BB3 (ImmunoChemistry Technology, p/n. 643) at room temperature for at least 1 hr (usually 2 hrs). Following blocking, the blocking buffer is removed from the wells. Exemplified tau monoclonal antibody of Example 1 and a humanized MC-1 antibody construct (having the framework combination: 5-51 heavy-chain, A27 light-chain) are diluted in 0.25% casein buffer to 1000 nM stock, then diluted serially 23 times with two fold dilutions. 50 μl of stock and serially diluted antibody (either exemplified tau monoclonal of Example 1 or humanized MC-1 antibody construct) are added to separate wells and incubated for 2 hours at room temperature, after which the plate is washed four times with 200 μl PBST per well. 50 μl of anti-human IgG-HRP antibodies (diluted at 1:4000 into 0.25% casein buffer) is added and incubated for 1 hour at room temperature, after which the plate is washed with 200 μl PBST per well 4 times. 50 μl of TMB/H2O2 is added and incubated at room temperature for about 10 minutes. Reaction is stopped by adding 50 μl stop solution (2N H2SO4) and colorimetric signal is measured at 450 nm. […]

[4] = molecular target: T2, purified tau fibrils from AD brain …; assay: direct ELISA on coated purified AD tau fibrils (0.7 ug/ml total tau)
Method: as §1

[5] = molecular target: T3, recombinant tau (rTau) (UniProt P10636-8 1-441, limits assumed); assay: direct ELISA, rTau coated at high (1 ug/mL) against low (15 ng/mL) concentration
T3 construct: Coated at 'high' (1 ug/mL, simulates aggregated tau) or 'low' (15 ng/mL, simulates tau monomer) concentration; also called rTau Monomer
T3 sequence (P10636 other isoform, or with tags, fused parts or gaps limits assumed): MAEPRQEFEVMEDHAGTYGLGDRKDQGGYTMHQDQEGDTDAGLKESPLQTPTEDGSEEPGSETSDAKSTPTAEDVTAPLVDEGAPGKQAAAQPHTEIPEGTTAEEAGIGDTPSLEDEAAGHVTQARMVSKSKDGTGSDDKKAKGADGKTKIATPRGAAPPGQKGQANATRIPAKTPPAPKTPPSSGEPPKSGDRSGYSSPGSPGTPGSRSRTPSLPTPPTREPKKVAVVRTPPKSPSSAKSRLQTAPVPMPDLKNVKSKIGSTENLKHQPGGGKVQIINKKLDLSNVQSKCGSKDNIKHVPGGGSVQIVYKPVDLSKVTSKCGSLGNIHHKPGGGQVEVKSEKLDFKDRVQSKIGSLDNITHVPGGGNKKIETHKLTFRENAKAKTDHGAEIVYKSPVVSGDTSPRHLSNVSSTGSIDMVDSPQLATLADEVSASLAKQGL
Method: (§2) 3690) at a concentration corresponding to 0.7 μg/ml of total tau. Plates are incubated overnight at 4° C., then washed three times with 150 μl of PBST (PBS containing 0.05% Tween-20), blocked in 100 μl BB3 (ImmunoChemistry Technology, p/n. 643) at room temperature for at least 1 hr (usually 2 hrs). Following blocking, the blocking buffer is removed from the wells. Exemplified tau monoclonal antibody of Example 1 and a humanized MC-1 antibody construct (having the framework combination: 5-51 heavy-chain, A27 light-chain) are diluted in 0.25% casein buffer to 1000 nM stock, then diluted serially 23 times with two fold dilutions. […] Reaction is stopped by adding 50 μl stop solution (2N H2SO4) and colorimetric signal is measured at 450 nm. […]
(§3) Selectivity of tau monoclonal antibody of Example 1 to tau aggregates versus tau monomer is determined by direct ELISA. […] The plates, coated with high or low concentrations of rTau, respectively, are exposed to exemplified tau monoclonal antibody of Example 1 and binding of exemplified tau monoclonal antibody to the respective concentrations of rTau is measured substantially as described in the ELISA assay above.

[6] = molecular target: T3, recombinant tau (rTau); assay: direct ELISA, rTau coated at 'Low' concentration (15 ng/mL), simulates tau monomer
Method: as §2, §3

[7] = molecular target: T4, human monomeric (native or non-aggregate) tau (human, UniProt P10636 2-758); assay: SPR (Biacore 2000), antibody captured on protein A, tau as analyte, steady state fit
T4 construct: Full-length human tau in monomeric state; analyte in SPR; also called Monomeric Tau; monomeric tau
Method: (§4) Surface Plasmon Resonance (SPR) assay, measured with a BIACORE® 2000 instrument (primed with HBS-EP+ running buffer (GE Healthcare, 10 mM Hepes pH7.4+150 mM NaCl+3 mM EDTA+0.05% surfactant P20) at 25° C.), is used to measure binding of exemplified tau monoclonal antibody of Example 1 to both human monomeric (e.g., native or non-aggregate) tau and human tau aggregates (both having the amino acid sequence as set forth in SEQ ID NO:13). Binding of humanized MC-1 antibody construct (having the framework combination: 5-51 heavy-chain, A27 light-chain) to human monomeric tau and human tau aggregate is measured in the same manner.
(§5) Except as noted, all reagents and materials are from BIACORE® AB (Upsala, Sweden). A CMS chip containing immobilized protein A (generated using standard NHS-EDC amine coupling) on all four flow cells (FC) is used to employ a capture methodology. […]
(§6) Data of binding to tau aggregate is processed using standard double-referencing and fit to a 1:1 binding model using Biacore 2000 Evaluation software, version 4.1, to determine the association rate (kₒₙ, M⁻¹ s⁻¹ units), dissociation rate (koff, s⁻¹ units), and Rₘₐₓ (RU units). The equilibrium dissociation constant (KD) was calculated from the relationship KD=koff/kₒₙ, and is in molar units. Data of binding to monomeric tau cannot be determined accurately by SPR as described above due to rapid on- and off-rates. […]

[8] = molecular target: T5, human tau aggregates (human, UniProt P10636 2-758); assay: SPR (Biacore 2000), antibody captured on protein A, tau aggregate as analyte, 1:1 fit
T5 construct: analyte in SPR; also called fibril tau; tau fibril aggregate
Method: as §4, §5, §6

[9] = molecular target: T3, recombinant tau (rTau); assay: direct ELISA, rTau coated at 'High' concentration (1 ug/mL), simulates aggregated tau
Method: as §2, §3

[10] = molecular target: T3, recombinant tau (rTau); assay: direct ELISA on rTau coated at 15 ng/ml; antibody stored 4 weeks at pH 6, 4 C; Study 1
Method: (§7) Formulated samples are incubated for four weeks at 4° C. or 40° C. in an accelerated degradation study. Following incubation, binding affinity of the exemplified tau monoclonal antibody of Example 1 to rTau (15 ng/ml) coated on 96-well plates is determined by direct ELISA following the ELISA procedure substantially as described above.

[11] = molecular target: T3, recombinant tau (rTau); assay: direct ELISA on rTau coated at 15 ng/ml; antibody stored 4 weeks at pH 6, 4 C; Study 2
Method: as §7

[12] = molecular target: T3, recombinant tau (rTau); assay: direct ELISA on rTau coated at 15 ng/ml; antibody stored 4 weeks at pH 4, 40 C; Study 1
Method: as §7

[13] = molecular target: T3, recombinant tau (rTau); assay: direct ELISA on rTau coated at 15 ng/ml; antibody stored 4 weeks at pH 4, 40 C; Study 2
Method: as §7

[14] = molecular target: T3, recombinant tau (rTau); assay: direct ELISA on rTau coated at 15 ng/ml; antibody stored 4 weeks at pH 6, 40 C; Study 1
Method: as §7

[15] = molecular target: T3, recombinant tau (rTau); assay: direct ELISA on rTau coated at 15 ng/ml; antibody stored 4 weeks at pH 6, 40 C; Study 2
Method: as §7

[16] = molecular target: T5, human tau aggregates; assay: SPR (Biacore 2000), antibody captured on protein A, tau aggregate as analyte, 1:1 fit; not normalized for avidity
Method: as §4, §5, §6

B1: exemplified tau monoclonal antibody of Example 1 (antibody, human IgG4 S228P, kappa, F234A L235A, V domains shown)
VH: EVQLVQSGAEVKKPGESLKISCKGSGYTFSNYWIEWVRQMPGKGLEWMGEILPGSDSIKYEKNFKGQVTISADKSISTAYLQWSSLKASDTAMYYCARRGNYVDDWGQGTLVTVSS
VL: EIVLTQSPGTLSLSPGERATLSCRSSQSLVHSNQNTYLHWYQQKPGQAPRLLIYKVDNRFSGIPDRFSGSGSGTDFTLTISRLEPEDFAVYYCSQSTLVPLTFGGGTKVEIKR
notes: Humanized IgG4 (HC framework 5-51), kappa LC (framework A27); expressed in CHO cells; Carries seven CDR changes relative to murine MC-1; also called exemplified engineered tau monoclonal antibody
For B1, the “fold improvement in the inhibition of induced tau aggregate propagation (against humanized MC-1 antibody construct)” value [1] was roughly 30 fold, the “EC50 (representing inhibition of AT8-Positive Tau Aggregate propagation (ng/mL))” value [2] was 16 ng/mL and the “fold improved affinity (as measured by EC50) over humanized MC-1 antibody construct” value [3] was 60 fold. The EC50 [4] was 0.0068 nM, the “fold improved affinity (as measured by EC50) to aggregate tau over monomeric tau” value [5] was 120 fold and the EC50 [6] was 0.723 nM. For the same binder, the Kd [7] was 235 nM, the koff [8] was less than 1e-05 s⁻¹ and the kon [8] was 45900 M⁻¹ s⁻¹. The EC50 [9] was 0.006 nM, the EC50 [10] was 0.926 nM and the EC50 [11] was 0.636 nM. It also gave an EC50 [12] of 0.414 nM, an EC50 [13] of 0.277 nM and an EC50 [14] of 0.754 nM. For the same binder, the EC50 [15] was 0.667 nM and the Kd [16] was less than 0.22 nM.

— patent publication US20180265577A1 (Eli Lilly, published 2018)
